{"source": "patent US20200283508A1", "about": "(TEXAS A AND M UNIVERSITY SYSTEM, published 2020)", "binders": {"B1": {"name": "Fibrinogen-D fragment (other)", "chain 1": "VSEDLRSRIEVLKRKVIEKVQHIQLLQKNVRAQLVDMKRLEVDIDIKIRSCRGSCSRALAREVDLKDYEDQQKQLEQVIAKDLLPSR", "chain 2": "DNENVVNEYSSELEKHQLYIDETVNSNIPTNLRVLRSILENLRSKIQKLESDVSAQMEYCRTPCTVSCNIPVVSGKECEEIIRKGGETSEMYLIQPDSSVKPYRVYCDMNTENGGWTVIQNRQDGSVDFGRKWDPYKQGFGNVATNTDGKNYCGLPGEYWLGNDKISQLTRMGPTELLIEMEDWKGDKVKAHYGGFTVQNEANKYQISVNKYRGTAGNALMDGASQLMGENRTMTIHNGMFFSTYDRDNDGWLTSDPRKQCSKEDGGGWWYNRCHAANPNGRYYWGGQYTWDMAKHGTDDGVVWMNWKGSWYSMRKMSMKIRPFFPQQ", "chain 3": "KMLEEIMKYEASILTHDSSIRYLQEIYNSNNQKIVNLKEKVAQLEAQCQEPCKDTVQIHDITGKDCQDIANKGAKQSGLYFIKPLKANQQFLVYCEIDGSGNGWTVFQKRLDGSVDFKKNWIQYKEGFGHLSPTGTTEFWLGNEKIHLISTQSAIPYALRVELEDWNGRTSTADYAMFKVGPEADKYRLTYAYFAGGDAGDAFDGFDFGDDPSDKFFTSHNGMQFSTWDNDNDKFEGNCAEQDGSGWWMNKCHAGHLNGVYYQGGTYSKASTPNGYDNGIIWATWKTRWYSMKKTTMKIIPFNRLTIGEGQQHHLGGAK", "notes": "domain: D fragment; also called Fg-D; D fragment of human Fg"}, "B2": {"name": "FBE5-F11 (scFv, V domains shown)", "VH": "QVQLQESGGGVVQPGRSLRLSCAASGFTFSSYGMHWVRQAPGKGLEWVAVISYDGSNKYYADSVKGRFTISRDNSKNTLYLQMNSLRAEDTAVYYCAKDLASSGFDYWGQGTLVTVSS", "VL": "QSVLTQPPSVSAAPGQKVTISCSGSSSNIGNNYVSWYQQLPGTAPKLLIYDNNKRPSGIPDRFSGSKSGTSATLGITGLQTGDEADYYCGTWDSSLSAEVFGGGTKLTVL"}, "B3": {"name": "LIG40-A11 (scFv, V domains shown)", "VH": "QVQLVESGGVVVQPGGSLRLSCAASGFTFDDYAMHWVRQAPGKGLEWVSLISWDGGSTYYADSVKGRFTISRDNSKNSLYLQMNSLRAEDTALYYCVAARRGMDVWGQGTTVTVSS", "VL": "KIVLTQSPLSLPVTPGEPASISCRSSQSLLYSNGNNYLDWYLQKPGQSPQLLIYLGSNRAPGVPDRFSGSGSGTDFTLRISRVEAEDVGVYYCMQGRQPPFTFGPGTKVDIK", "notes": "also called anti-CoaR scFv-Fc antibody"}}, "key": {"[1]": {"biological_target": "T1, synthetic peptide Coa-RI (Coa 506-532) (Staphylococcus aureus strain Newman)", "T1 construct": "also called sCoa-RI", "test": "isothermal titration calorimetry, peptide into 10 µM Fg-D, one-site model"}, "Efb-N30-105 [2]": {"biological_target": "T2, Efb-N30-105 (Staphylococcus aureus strain Newman, UniProt A6QG59 30-105)", "T2 sequence": "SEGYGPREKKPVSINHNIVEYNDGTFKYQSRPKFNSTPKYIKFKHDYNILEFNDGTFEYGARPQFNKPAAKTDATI", "test": "ELISA, apparent Kd from half maximum binding"}, "[3]": {"biological_target": "T3, recombinant Efb-O (Efb 68-98) (Staphylococcus aureus strain Newman, UniProt P08515 1-218 = GST)", "test": "ELISA, apparent Kd from half maximum binding"}, "Efb-A30-67 [4]": {"biological_target": "T4, Efb-A30-67 (Staphylococcus aureus strain Newman, UniProt P08515 1-218 = GST; A6QG59 30-67)", "test": "ELISA, apparent Kd from half maximum binding"}, "[5]": {"biological_target": "T3, recombinant Efb-O (Efb 68-98)"}, "Efb-A30-67 [6]": {"biological_target": "T4, Efb-A30-67"}, "Coa-F (Coa 311-505)": {"biological_target": "Coa-F (Coa 311-505) (Staphylococcus aureus strain Newman, UniProt P08515 1-218 = GST)", "test": "apparent Kd from half-maximal binding in ELISA (GraphPad Prism)"}, "Coa-C (Coa 311-636) [7]": {"biological_target": "T5, Coa-C (Coa 311-636) (Staphylococcus aureus strain Newman, UniProt P08515 1-218 = GST)", "T5 construct": "also called rCoa-C; Coa-C311-636", "test": "apparent Kd from half-maximal binding in ELISA (GraphPad Prism)"}, "[8]": {"biological_target": "T6, Coa-R0474-505 (recombinant protein) (Staphylococcus aureus strain Newman)", "T6 chain": "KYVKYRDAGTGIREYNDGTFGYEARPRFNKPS", "test": "apparent Kd from half-maximal binding in ELISA (GraphPad Prism)"}, "Coa-C (Coa 311-636) [9]": {"biological_target": "T5, Coa-C (Coa 311-636)"}, "Coa-R (Coa 506-636) [10]": {"biological_target": "T7, Coa-R (Coa 506-636) (Staphylococcus aureus strain Newman)", "test": "ELISA, antigen coated 200 ng/well, scFv-Fc at 0.5 µg/ml"}, "Efb-N30-105 [11]": {"biological_target": "T2, Efb-N30-105", "test": "apparent Kd from half-maximal binding in ELISA (GraphPad Prism)"}, "[12]": {"biological_target": "T3, recombinant Efb-O (Efb 68-98)", "test": "apparent Kd from half-maximal binding in ELISA (GraphPad Prism)"}, "Efb-A30-67 [13]": {"biological_target": "T4, Efb-A30-67", "test": "apparent Kd from half-maximal binding in ELISA (GraphPad Prism)"}, "BSA": {"biological_target": "T8, BSA (bovine, UniProt P02769 25-607)", "T8 construct": "also called bovine serum albumin", "T8 sequence (P02769 25-607 limits assumed)": "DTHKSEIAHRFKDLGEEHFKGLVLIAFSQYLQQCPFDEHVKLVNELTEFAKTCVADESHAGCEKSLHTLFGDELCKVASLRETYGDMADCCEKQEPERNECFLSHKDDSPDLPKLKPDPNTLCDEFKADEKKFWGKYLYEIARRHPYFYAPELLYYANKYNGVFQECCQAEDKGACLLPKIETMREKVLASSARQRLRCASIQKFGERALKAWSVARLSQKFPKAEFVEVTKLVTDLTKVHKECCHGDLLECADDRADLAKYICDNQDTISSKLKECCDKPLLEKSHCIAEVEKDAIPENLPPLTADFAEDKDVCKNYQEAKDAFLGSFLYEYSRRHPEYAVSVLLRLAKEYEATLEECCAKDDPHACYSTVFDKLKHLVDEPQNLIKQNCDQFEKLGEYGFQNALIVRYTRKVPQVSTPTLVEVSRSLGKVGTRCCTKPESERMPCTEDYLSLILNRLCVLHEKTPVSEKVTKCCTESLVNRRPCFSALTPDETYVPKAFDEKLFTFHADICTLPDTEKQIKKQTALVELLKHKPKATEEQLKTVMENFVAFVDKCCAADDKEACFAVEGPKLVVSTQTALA", "test": "solid-phase binding assay (FIG. 24)"}, "[14]": {"biological_target": "T1, synthetic peptide Coa-RI (Coa 506-532)", "test": "peptide inhibition ELISA; appreciable inhibition only above 100 µM peptide"}, "[15]": {"biological_target": "T6, Coa-R0474-505 (recombinant protein)", "test": "solid-phase binding assay, titration (FIG. 24); ND in FIG. 27"}, "Coa-C (Coa 311-636) [16]": {"biological_target": "T5, Coa-C (Coa 311-636)", "test": "apparent Kd from half-maximal binding in ELISA (GraphPad Prism)", "remark": "listed apart in the source", "procedure": "As well, binding was tested against Coa fragments, namely Coa-C₃₁₁₋₆₃₆, Coa-F₃₁₁₋₅₀₅, Coa-R0₄₇₄₋₅₀₅ and Coa-R₅₀₆₋₆₃₆. Recombinant proteins Efb-N₃₀₋₁₀₅, Efb-A₃₀₋₆₇, Efb-O₆₈₋₉₈, Coa-C₃₁₁₋₆₃₆, Coa-F₃₁₁₋₅₀₅, Coa-R0₄₇₄₋₅₀₅ and Coa-R₅₀₆₋₆₃₆ were diluted in 50 mM sodium carbonate pH 9.6 and immobilized at the concentration of 200 ng/well for 1 hour at room temperature. Immobilized proteins were probed for recognition in a solid-phase binding assay with different quantities of LIG40 antibodies after blocking and washing. After washing, varying concentrations of LIG40 scFv-Fc antibodies were diluted in 2% BSA+1×PBS+0.05% Tween-20 and incubated with the immobilized proteins for 1 hour at room temperature with shaking at 250 rpm. Bound scFv-Fcs were detected using polyclonal α-human IgG HRP-conjugated Ab diluted to 1:10000 in 2% BSA+1×PBS+0.05% Tween-20. HRP-conjugated Ab was incubated for 1 hour at room temperature with shaking at 250 rpm. HRP signal was developed with Sigma FAST-OPD using manufacturers guidelines."}, "Efb-N30-105 [17]": {"biological_target": "T2, Efb-N30-105", "test": "solid-phase binding assay, titration (FIG. 24)"}, "[18]": {"biological_target": "T3, recombinant Efb-O (Efb 68-98)", "test": "solid-phase binding assay, titration (FIG. 24)"}, "Efb-A30-67 [19]": {"biological_target": "T4, Efb-A30-67", "test": "solid-phase binding assay, titration (FIG. 24)"}, "Coa-R (Coa 506-636) [20]": {"biological_target": "T7, Coa-R (Coa 506-636)", "test": "blocking ELISA: scFv-Fc pre-incubated with 10 nM CoaR, residual binding to coated Fg (blocked ligand: Fg)"}, "Coa-C (Coa 311-636) [21]": {"biological_target": "T5, Coa-C (Coa 311-636)", "remark": "listed apart in the source"}, "Coa-R (Coa 506-636) [22]": {"biological_target": "T7, Coa-R (Coa 506-636)"}}, "note": "Read-outs that look alike come from different tables or passages of the source.", "data": [{"binder": "B1", "values": [{"measurement": "Kd", "setting": "[1]", "value": 88000, "unit": "pM"}]}, {"binder": "B2", "values": [{"measurement": "Kd", "setting": "Efb-N30-105 [2]", "value": "~100", "unit": "pM"}, {"measurement": "Kd", "setting": "[3]", "value": "~100", "unit": "pM"}, {"measurement": "Kd", "setting": "Efb-A30-67 [4]", "value": "~100", "unit": "pM"}, {"measurement": "EC50 (read off the curve)", "setting": "[5]", "value": "~0.05", "unit": "µg/mL"}, {"measurement": "EC50 (read off the curve)", "setting": "Efb-A30-67 [6]", "value": "~0.06", "unit": "µg/mL"}, {"measurement": "Kd", "setting": "Coa-F (Coa 311-505)", "value": 244, "unit": "pM"}, {"measurement": "Kd", "setting": "Coa-C (Coa 311-636) [7]", "value": 513, "unit": "pM"}, {"measurement": "Kd", "setting": "[8]", "value": 213, "unit": "pM"}, {"measurement": "EC50 (read off the curve)", "setting": "Coa-C (Coa 311-636) [9]", "value": "~0.06", "unit": "µg/mL"}, {"measurement": "binding result", "setting": "Coa-R (Coa 506-636) [10]", "value": "no binding (tested: 0.5 µg/ml)"}, {"measurement": "Kd", "setting": "Efb-N30-105 [11]", "value": 219, "unit": "pM"}, {"measurement": "Kd", "setting": "[12]", "value": 396, "unit": "pM"}, {"measurement": "Kd", "setting": "Efb-A30-67 [13]", "value": 483, "unit": "pM"}]}, {"binder": "B3", "values": [{"measurement": "binding result", "setting": "BSA", "value": "no binding"}, {"measurement": "binding result", "setting": "[14]", "value": "binds"}, {"measurement": "binding result", "setting": "[15]", "value": "no binding"}, {"measurement": "Kd", "setting": "Coa-C (Coa 311-636) [16]", "value": 133, "unit": "pM"}, {"measurement": "binding result", "setting": "Efb-N30-105 [17]", "value": "no binding"}, {"measurement": "binding result", "setting": "[18]", "value": "no binding"}, {"measurement": "binding result", "setting": "Efb-A30-67 [19]", "value": "no binding"}, {"measurement": "IC50 (read off the curve)", "setting": "Coa-R (Coa 506-636) [20]", "value": "~3", "unit": "µg/mL"}, {"measurement": "EC50 (read off the curve)", "setting": "Coa-C (Coa 311-636) [21]", "value": "~0.02", "unit": "µg/mL"}, {"measurement": "EC50 (read off the curve)", "setting": "Coa-R (Coa 506-636) [22]", "value": "~0.008", "unit": "µg/mL"}]}]}
